Consider one substance from PMC4046932.

One may read the stoichiometry N as the number of molecules, sites or subunits per partner or assembly.

In this experiment the target is Neisseria gonorrhoeae MtrD inner membrane multidrug efflux pump (Neisseria gonorrhoeae) (UniProt Q51073). As to the kind of experiment: crystal structure; sitting-drop vapor diffusion at room temperature; 20 mg/ml MtrD in 20 mM Na-HEPES pH 7.5, 0.05% Cymal-6; reservoir 30% PEG 400, 0.1 M Na-Bicine pH 8.5, 0.1 M NH4Cl, 0.05 M BaCl2, 9% glycerol; space group R32, one protomer per asymmetric unit; 3.53 Å.

Substance “Neisseria gonorrhoeae MtrD inner membrane multidrug efflux pump (from UniProt Q51073 1-1067) (natural protein)” yielded a stoichiometry N of 3.
